Article PMC4932183, “Structure and activation of pro-activin A” (Nature Communications, 2016)

T1: cleaved pro-activin A complex (pro-mature complex) (human, UniProt P08476 311-426)
T1 sequence (P08476 whole entry, looked up): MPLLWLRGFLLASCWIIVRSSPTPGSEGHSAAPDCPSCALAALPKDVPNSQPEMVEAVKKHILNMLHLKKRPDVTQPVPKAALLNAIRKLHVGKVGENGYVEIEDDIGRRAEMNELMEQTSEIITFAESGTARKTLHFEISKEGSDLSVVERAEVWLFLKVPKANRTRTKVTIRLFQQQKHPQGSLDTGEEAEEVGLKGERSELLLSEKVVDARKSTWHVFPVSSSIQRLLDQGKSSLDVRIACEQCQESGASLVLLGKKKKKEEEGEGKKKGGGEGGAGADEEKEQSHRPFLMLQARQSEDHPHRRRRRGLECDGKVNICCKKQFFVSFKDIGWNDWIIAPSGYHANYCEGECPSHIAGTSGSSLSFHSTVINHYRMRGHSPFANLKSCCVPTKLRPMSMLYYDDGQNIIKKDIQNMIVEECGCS

B1: mature activin A (disulfide-linked dimer of the mature domain of inhibin βA) (ligand, human, UniProt P08476 311-426, looked up)
chain: GLECDGKVNICCKKQFFVSFKDIGWNDWIIAPSGYHANYCEGECPSHIAGTSGSSLSFHSTVINHYRMRGHSPFANLKSCCVPTKLRPMSMLYYDDGQNIIKKDIQNMIVEECGCS
notes: human inhibin βA chain (Uniprot P08476), mature domain, up to residue 426; residues marked m (Asp27m) count on the mature domain. numbers count on: the mature protein; Residues of the HRV 3C site could be left at the N-terminus of the complex-derived form; also called mature dimer; control activin A
B2: follistatin-288 (natural protein, UniProt P19883-2 30-317, looked up)
chain: GNCWLRQAKNGRCQVLYKTELSKEECCSTGRLSTSWTEEDVNDNTLFKWMIFNGGAPNCIPCKETCENVDCGPGKKCRMNKKNKPRCVCAPDCSNITWKGPVCGLDGKTYRNECALLKARCKEQPELEVQYQGRCKKTCRDVFCPGSSTCVVDQTNNAYCVTCNRICPEPASSEQYLCGNDGVTYSSACHLRKATCLLGRSIGLAYEGKCIKAKSCEDIQCTGGKKCLWDFKVGRGRCSLCDELCPDSKSDEPVCASDNATYASECAMKEAACSSGVLLEVKHSGSCN

Legend:
[1] = target: T2, Avi-tagged follistatin-288, biotinylated (UniProt P19883-2 30-317, biotin (on the Avi tag, by BirA)); test: BLI; biotinylated Avi-tagged FST-288 immobilised on streptavidin biosensors; analytes in kinetic buffer (PBS, 0.1% bovine serum albumin, 0.02% Tween-20); 600 s association, 600 s dissociation; 30 °C; conditions: both partners purified
T2 construct: source: biotinylated with BirA enzyme, purified by reverse phase chromatography

[2] = target: B1; test: cell-based or functional assay
[3] = target: T1, cleaved pro-activin A complex …; test: cell-based or functional assay

| Kd [1] | IC50 of FST-288 for inhibition of signalling by 60 pM mature activin A; activin-inducible luciferase reporter in HEK293T cells [2] | IC50 of FST-288 for inhibition of signalling by 60 pM pro-activin A complex; activin-inducible luciferase reporter in HEK293T cells [3] | Binder |
| --- | --- | --- | --- |
| 209 pM | – | – | B1 |
| – | 81 pM | 90 pM | B2 |
